# “Also recorded” adds a separate entry of the source.
# Legend:
# rabbit muscle actin = biological target: T1, rabbit muscle actin (Oryctolagus cuniculus, UniProt P68135); test: In vitro bundling of actin by peptides (co-polymerization, differential centrifugation, SDS gel); type: biochemical; conditions: for In vitro actin bundling activity: Tables 2 and 3, peptide co-polymerized with actin in vitro; for activity designation of the peptide in the sequence list (active / less active / inactive): summary sequence table; for bundled actin upon inducing polymerization: polymerization induced (PI +)
# T1 construct: Purified rabbit muscle actin (Cytoskeleton Inc., Denver, Mo.); purchased Cytoskeleton Inc; host or cells: rabbit muscle
# Procedure: The peptides in Table 2 were added to polymerised actin in vitro at different molar ratios. Centrifugation was used to separate fractions containing F-actin, G-actin and bundled actin, which were then run out on […]. Purified rabbit muscle actin (Cytoskeleton Inc., Denver, Mo.) was depolymerized in Low Salt Buffer [LSB; 5 mM Tris-HCl, pH 8.0, 0.2 mM CaCl2, 0.2 mM ATP, 0.5 mM DTT, mM sucrose) for 1 h on ice and denucleated by centrifugation for 1 h at 100,000×g, 4° C. 13 μM monomeric actin was polymerized in vitro by addition of 1/50 vol. […] The samples were centrifuged for 15 min at 10,000×g at room temperature to pellet “bundled filaments”. The resulting supernatant was centrifuged for 1 h at 100,000×g at room temperature to separate F-actin filaments […]. The fractions were boiled in SDS-sample buffer and analyzed on a 10% SDS-Polyacrylamide gel stained with Coomassie.
# [1] = system: Embryos from Xenopus laevis; test: Actin-dependent cleavage in embryos injected with peptide; type: in vivo; conditions: 0.6 mg/mL final concentration in egg; for effect on cell division of embryos: injected, fixed at 8-cell stage
# From the text: Referring now to photographs of FIG. 3 the peptides have a severely abnormal effect on the embryonic development of cells. […] The embryos resemble the uninjected normal embryos of FIG. 3A
# The resulting blastomeres were unable to regain function and were severely abnormal showing abortive cleavage furrows.
# However, in the embryos injected with the active peptide (FIG. 3F), filamentous actin is seen in the abortive cleavage furrows.
# [2] = biological target: T2, rabbit muscle aldolase with actin (Oryctolagus cuniculus, UniProt P68135); test: Aldolase co-precipitation with polymerized actin; type: biochemical; conditions: 1 nmol aldolase, 100 nmol peptide
# T2 construct: presence (lanes 4-6) of rabbit muscle actin (2 nmol); purchased Sigma (aldolase); host or cells: rabbit muscle
# From the text: Referring now to FIG. 7, since the SS2 sequence is specific to SuSy protein (with SS2 having some similarity to actin), we tested its effect on the well-known interaction of rabbit muscle aldolase with actin (Winter et al. 1998, Rabbit muscle aldolase was purchased from Sigma). Phalloidin could potentially interfere with the peptides of the invention since both drugs affect actin.
# Addition of SS2 peptide had no effect on aldolase precipitation in the absence of actin (FIG. 7A), but increased the amount of aldolase co-precipitating with polymerized actin (FIG. 7B). Although binding of aldolase to actin is not sucrose dependent as shown for SuSy, the presence of Sucrose in the polymerization assay caused an additional increase in the amount of aldolase bound to polymerized actin as shown by lane 6 in FIG. 7B. Rabbit muscle aldolase (1 nmol) was incubated in the absence (lanes 1-3) or presence (lanes 4-6) of rabbit muscle actin (2 nmol).
# [3] = system: actin comet tails in Xenopus egg extracts; test: Actin comet-tail formation in cytoplasmic extracts; type: biochemical, Xenopus laevis; conditions: for effect on actin comet tails: FIGS. 4C, 4D, 4F, concentration not given
# Procedure: In FIGS. 4A and 4B, in vitro polymerized actin forms comet tail from rhodamine-labeled actin added to Xenopus laevis egg cytoplasmic extract. This was set up according to the protocol in Taunton et al., J Cell Biol. 2000 Feb. 7; 148(3):519-30.
# Crude Xenopus egg extract was prepared as described except that cytochalasin D was omitted (Murray and Kirschner, Nature. 1989 May 25; 339(6222):275-80). Cytosol and a heavy membrane fraction were prepared by centrifugation of the crude extract (2 h, 300.000 g max; BECKMAN SW-50 rotor). The viscous glycogen pellet beneath the membrane layer was discarded. Cytosol was further clarified by spinning for 15 min at 541,000 g max (BECKMAN TLA 100.3 rotor). Crude membranes (diluted with one volume of 2 M sucrose) and cytosol were snap frozen in separate aliquots for storage at −80° C. unless otherwise indicated. Clarified cytosol contained a small population of vesicles, but motility assays were far more robust (more comet tails over a longer time period) when cytosol was supplemented with the heavy membrane fraction.
# For the standard assay, crude membranes in 1 M sucrose (20-μl aliquot, derived from ˜80 μl crude extract) were washed and resuspended in 14 μl buffer A (50 mM NaCl, 5 mM MgCl2, and 50 mM tris [pH 7.5]). To the membrane suspension were added 35 μl cytosol (derived from ˜80 μl crude extract), 0.3 μl rhodamine-labeled actin (prepared according to Kellogg et al., Development. 1988 August; 103(4):675-86), 3 μl PMA (20 μM stock in 10% DMSO), and 20 μl buffer A at 4° C. 20-μl samples were then warmed to room temperature. After 30-40 min, 2-μl aliquots were viewed with a Nikon E800 microscope to yield the photomicrographs of FIG. 4. Images were acquired with a Princeton Instruments cooled CCD camera (standard rhodamine filter set, Princeton Instruments, Trenton, N.J.) and analyzed with WINVIEW (Visitron System, Puchheim, Germany) or METAMORPH software (Princeton Instruments, Trenton, N.J.). Pixels having an intensity over a threshold value (set to a value greater than the background fluorescence in regions devoid of comet tails) were summed over 10 random fields to quantitate relative actin assembly.
# Cytosol was supplemented with a crude membrane fraction, rhodamine-actin, 1 μM PMA and peptide SS2 or SS12 (1 μM). After incubating at room temperature for 20 min, samples were viewed by fluorescence. Actin comet tails formed in Xenopus cytoplasmic extracts where no SS2 or SS12 peptides were added as shown by the photographs A, B and E of FIG. 4.
# MDA 231 cells = test: Actin reorganization in MDA 231 cells electroporated with peptide, rhodamine-phalloidin stained; type: cell-based, human; conditions: MDA 231 cells electroporated with peptide
# Procedure: Referring now to FIG. 2, it can be shown that treatment with an active peptide results in actin organization in human mammary epithelial tumor cells. MDA 231 cells were electroporated with SS1 (panel A) or SS12 (panel B), fixed, and rhodamine-phalloidin stained. Control epithelial tumor cells were treated with SS1 (SEQ ID NO: 9) resulting in no effect on actin-filled lamellipodia (or ruffling) characteristic of crawling cells.
# MDA 231 cells are a particularly aggressive tumor cell line crawling and moving from between tissues.
# [4] = system: dextran-labeled electroporated cells; test: Change in number of dextran-labeled cells after electroporation with peptide; type: cell-based; conditions: dextran-labeled cells counted before and after 18 hrs incubation
# Procedure: Electroporated cells were treated with fluorescent dextran plus peptide so those cells receiving the peptide could be identified. Typically a very small number of cells successfully incorporate substance during electroporation, making it difficult to identify those receiving peptide. Typically one sees 10-20% incorporation. But, there is good evidence showing that if a cell incorporates one component in buffer, it will incorporate all components. Thus, dextran can be used to identify those cells receiving peptide. After electroporation of cells with fluorescent dextran and the active peptide SEQ ID NO: 12, the dextran-labeled cells were initially counted and then incubated for 18 hrs. After incubation overnight, the dextran-labeled cells were once again counted. The following Tables 4 and 5 show the average change in dextran-labeled cells after the cells are electroporated and the peptide has invaded the cell body. The cell numbers of the SS12 treated peptide seemed to fluctuate after incubation with various concentrations of the SS12 peptide.
# [5] = 1:1 molar ratio peptide:actin, FIGS. 6C, 6D
Sequence,bundling of actin during in vitro polymerization (rabbit muscle actin),In vitro actin bundling activity (rabbit muscle actin),activity designation of the peptide in the sequence list (active / less active / inactive) (rabbit muscle actin),bundled actin upon inducing polymerization (rabbit muscle actin; [5]),other results
GRMRRIATVEMMKK (SP26 inactive synthetic peptide) [reference compound],not able to bundle actin filaments in vitro,inactive,SP26 inactive,,
GIVRKWISRFEVWPYLKK (SS2 active peptide based on Zea mays SuSy 377- 392),most active,active,SS2 active,the bulk of the actin is bundled,"lasting effect on cell division ([1]; divisions typically an hour apart): at least 3 divisions; effect on cell division of embryos [1]: block several cell divisions; bundling of already polymerized (filamentous) actin (rabbit muscle actin; 2 nmol actin polymerized 30 min, then 0, 1, 2, 4 and 20 nmol peptide for 30 min, FIG. 6B): Only the highest concentration of SS2 caused bundling; bundled actin with peptide alone (rabbit muscle actin; 1:1 molar ratio peptide:actin, polymerization not induced, FIGS. 6C, 6D): half of the actin bundled; effect of phalloidin on bundling activity of the peptide (rabbit muscle actin; FIG. 7): not affected; distribution of actin between bundled and F-actin fraction (rabbit muscle actin; added to unpolymerized actin, molar ratio peptide to actin 0.5, FIG. 6A): half-bundled and half-F-actin; amount of aldolase co-precipitating with polymerized actin ([2]; 2 nmol actin, FIG. 7B): increased; aldolase precipitation in the absence of actin ([2]; FIG. 7A): no effect; effect on actin comet tails [3]: complete disruption of the comet tails; actin comet tail formation ([3]; peptide 1 μM, 1 μM PMA, 20 min at room temperature): little or no actin comet tail formation"
WISRFEVW (Small block of SS12 sequence required for less active synthetic peptide) [SMIN],,less active,SMIN less active,,
RRISSVEDKK (SP3 inactive synthetic peptide) [reference compound],,inactive,SP3 inactive,do not produce bundled actin,
GPTLKRTASTAFMNTTSKK (NR11 inactive synthetic peptide) [reference compound],,inactive,NR11 inactive,,
GIVRKAISRFEVAPYL (SS15 less active synthetic peptide),,less active,SS15 less active,did not cause bundled actin,"form of polymerised actin (rabbit muscle actin; molar ratio peptide:actin 10:1 and 100:1, added to unpolymerized actin, FIG. 6E): predominantly in the bundled form"
GDRVLSRLHSVRERIGK (synthetic SS1 inactive control peptide) [reference compound],,,SS1 inactive,,effect on cell division of embryos [1]: no effect; effect on actin-filled lamellipodia (MDA 231 cells): no effect; % change in cell number [4]: +45.0%; % change in cell number ([4]; peptide concentration 0.2 μM): +1.2%; % change in cell number ([4]; peptide concentration 1.0 μM): +17.4%; % change in cell number ([4]; peptide concentration 10.0 μM): +43.8%
"ENGIVRKWISRFEVW (synthetic peptide derived from Zea mays SuSy2 protein 357-389) [SEQ ID NO: 3, Zea mays SuSy2 375-389]",,,,,effect on actin comet tails [3]: complete disruption of the comet tails
ILRVPFRTENGIVRK (SS11 inactive synthetic peptide),not effective in bundling; also recorded: did not cause actin to bundle,inactive,SS11 inactive,do not produce bundled actin,

# Reference: US8039438B2, “Synthetic peptides that cause F-actin bundling and block actin depolymerization” (The Regents of the University of California, priority 2003, dated 2011)
